Measured values as given in paper PMC9164213 (Nature, 2021).

Target: the molecule itself
Test: cryo-EM structure

Protein	stoichiometry N
GsuCas4/Cas1 (Geobacter sulfurreducens type I-G Cas4/Cas1 natural fusion), tag cleaved (natural protein) MAETDGSIPLIPVRMLNEHVYCPRLAYLMWVQGEFSHNEFTVDGVIRHRRVDAGGGVLPSETQEDSRIHARSVSLSSERLGITAKIDLVEGEGAYVSPVDYKRGKRPHVAGGAYEPERVQLCAQGLLLREHGFASDGGALYFVASRERVPVAFDDELIGRTLAAIDEMGRTALSGTMPPPLEDSPKCPRCSLVGICLPDEVRFLSHLSVEPRPIIPADGRGLPLYVQSPKAYVRKDGDCLVIEEERVRVAEARLGETSQVALFGNATLTTAALHECLRREIPVTWLSYGGWFMGHTVSTGHRNVETRTYQYQRSFDPETCLNLARRWIVAKIANCRTLLRRNWRGEGDEAKAPPGLLMSLQDDMRHAMRAPSLEVLLGIEGASAGRYFQHFSRMLRGGDGEGMGFDFTTRNRRPPKDPVNALLSFAYAMLTREWTVALAAVGLDPYRGFYHQPRFGRPALALDMMEPFRPLIADSTVLMAINNGEIRTGDFVRSAGGCNLTDSARKRFIAGFERRMEQEVTHPIFKYTISYRRLLEVQARLLTRYLSGEIPAYPNFVTR	2
GsuCas2 (Geobacter sulfurreducens Cas2), tag cleaved (natural protein) MEHLYIVSYDIRNQRRWRRLFKTMHGFGCWLQLSVFQCRLDRIRIIKMEAAINEIVNHAEDHVLILDLGPAENVKPKVSSIGKTFDPILRQAVIV	2
